Source: paper PMC10691696, “ZmEREB92 plays a negative role in seed germination by regulating ethylene signaling and starch mobilization in maize”

B1: pAMYa2-A (dsDNA)
DNA 1: TCAAGAATTTAAGGCGGCGAAAGCCGAC
DNA 2: GTCGGCTTTCGCCGCCTTAAATTCTTGA
B2: pAMYa2-C (dsDNA)
DNA 1: TCGTCGTCTCGCCGCCGCCGCCGCCGCCGCAACGGGTCT
DNA 2: AGACCCGTTGCGGCGGCGGCGGCGGCGGCGAGACGACGA

Molecular target: ZmEREB92 (Zea mays, UniProt B6SIZ8 1-233)
Assay: EMSA; 200x unlabeled probe used as competitor; EMSA: 0.2 pmol biotin probe with ZmEREB92-His, 30 min at 28 °C, 6.5% native PAGE, chemiluminescence kit (Beyotime); buffer, salt and pH not given
Conditions: protein: recombinant; tags: His-tag (C-terminal as stated; pET32a vector); label: biotin; blunt

Sequence of ZmEREB92 (B6SIZ8 entry or part of it): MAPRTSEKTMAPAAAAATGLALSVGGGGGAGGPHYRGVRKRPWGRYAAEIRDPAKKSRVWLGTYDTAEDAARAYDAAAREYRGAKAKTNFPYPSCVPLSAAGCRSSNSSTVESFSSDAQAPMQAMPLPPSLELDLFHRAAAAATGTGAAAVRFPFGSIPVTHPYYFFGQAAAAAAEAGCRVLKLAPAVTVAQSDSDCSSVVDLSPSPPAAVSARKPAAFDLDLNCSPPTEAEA

| Binder | binding result |
| --- | --- |
| B1 | binds |
| B2 | binds |
